Test results: patent publication US11629193B2, “EGFR binding molecules” (F-STAR BETA LIMITED, priority 2016, dated 2023)

Assays:
LL2.ova = experiment: In vivo skin toxicity and tumour growth, syngeneic mouse tumour model LL2.ova; conditions: 250 μg intraperitoneally on days 3, 6 and 10; eight mice each
Protocol: Skin toxicity has been observed with known anti-EGFR therapies, resulting in skin rash, lesions etc. In order to determine the toxicity of anti-EGFR Fcabs and mAb^2 containing anti-EGFR Fcs, an in vivo study was conducted. […] The tumour cells (5×10^5 cells) were implanted subcutaneously in the flank of female C57B16 (Charles River) mice aged 6-8 weeks and the mice were randomly assigned to four cohorts of eight mice each. […] The tumour volumes were measured with electronic callipers at days 10, 12, 14, 17, 19, 20 and 21. At day 16 pictures of the mice were taken to illustrate the observed skin toxicity.

HGF = HGF (Homo sapiens, UniProt P14210); experiment: Free HGF in culture media of U87MG cells (HGF Human ELISA Kit); format: cell-based; design: examined in U87MG cells that secrete HGF; endogenous in cells; host or cells: U87MG; conditions: 30 nM, 4 days, compared to controls
HGF, sequence (P14210 32-728): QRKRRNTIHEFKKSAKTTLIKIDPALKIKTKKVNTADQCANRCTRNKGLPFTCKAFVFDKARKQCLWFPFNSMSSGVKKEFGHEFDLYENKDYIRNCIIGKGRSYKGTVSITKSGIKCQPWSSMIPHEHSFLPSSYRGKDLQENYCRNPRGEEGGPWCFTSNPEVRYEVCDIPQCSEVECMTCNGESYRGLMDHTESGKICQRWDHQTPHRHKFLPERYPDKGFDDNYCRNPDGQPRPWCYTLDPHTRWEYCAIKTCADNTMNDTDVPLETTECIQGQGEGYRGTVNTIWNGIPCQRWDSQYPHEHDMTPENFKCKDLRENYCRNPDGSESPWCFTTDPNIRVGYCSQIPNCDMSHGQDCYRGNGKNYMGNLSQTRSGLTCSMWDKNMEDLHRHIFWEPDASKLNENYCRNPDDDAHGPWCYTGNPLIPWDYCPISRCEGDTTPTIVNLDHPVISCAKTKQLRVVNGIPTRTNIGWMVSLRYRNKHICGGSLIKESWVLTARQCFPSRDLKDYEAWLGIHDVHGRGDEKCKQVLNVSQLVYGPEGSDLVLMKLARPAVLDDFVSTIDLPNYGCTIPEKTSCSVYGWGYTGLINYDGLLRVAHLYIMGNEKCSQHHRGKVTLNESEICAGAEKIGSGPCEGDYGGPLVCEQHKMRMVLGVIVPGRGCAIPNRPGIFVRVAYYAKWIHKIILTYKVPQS
Protocol: It was hypothesised that internalisation of HGF by anti-EGFR/HGF mAb^2 leads to reduced level of HGF in the system. To test this hypothesis, the change in level of free HGF caused by incubation with anti-EGFR/HGF mAb^2 was examined in U87MG cells that secrete HGF. U87MG cultures were incubated with different treatments at 30 nM for 4 days at 37° C. […] On day 4, the media from each cell culture were collected for HGF level analysis. HGF concentration was measured using HGF Human ELISA Kit (ThermoFisher, KAC2211) following the manufacturer's protocol. Using monoclonal anti-HGF antibodies, the free HGF in media was detected (free HGF was defined as HGF in the media which was bound by detection antibodies).

[1] = system: phosphorylation of MAPK and Akt; experiment: Western blot of downstream signalling in U87MG cells; format: cell-based, human; conditions: 200 nM (200+200 nM for combination), HGF and EGF present
Protocol: (§1) Overnight cultures of the glioblastoma cell line U87MG (ATCC HTB-14) were moved from a medium with 10% FBS to a low serum medium with 0.1% FBS to optimise sensitivity to ligand stimulation. The cells were incubated overnight. […] Controls without antibody treatment were included, with and without growth factor stimulation. The treated cells were lysed using lysis buffer (10 mM Tris® pH7.5, 150 mM NaCl, 1 mM EDTA) comprising 1:100 protease inhibitor cocktail (Calbiochem, 539131) and 1:100 Phosphatase inhibitor cocktail (Calbiochem, 524625) and the lysates collected for analysis.
(§2) Lysate samples were subjected to standard western blotting analysis using a 4-12% Bis-Tris® protein gel (ThermoFisher, NP0322BOX) and transferred to a nitrocellulose membrane (ThermoFisher, IB301001). The membrane was blocked with 5% Marvel milk/TBST and then probed for phospho-c-Met using a rabbit monoclonal antibody specific for c-Met phosphorylated at Tyr1234/1235 (Cell Signaling, 3077), phospho-EGFR using a mouse monoclonal antibody specific for EGFR phosphorylated at Tyr1068 (Cell Signaling, 2236), phospho-MAPK using a mouse monoclonal antibody specific for p44/42 MAPK (ERK1/2) phosphorylated at Thr202/Tyr204 (Cell Signaling, 9106), and phospho-Akt using a rabbit monoclonal antibody specific for Akt phosphorylated at Ser473 (Cell Signaling, 9271). […]

[2] = system: phosphorylation of c-Met and EGFR; experiment: Western blot of receptor phosphorylation in U87MG cells; format: cell-based, human; conditions: 200 nM, 20 min
Protocol: as §1, §2

NCI-H1975 cells = experiment: Cell proliferation, NCI-H1975 cells stimulated with HGF; format: cell-based; conditions: NCI-H1975, antibodies 300 nM with and without erlotinib (2 μM)
Protocol: NCI-H1975 (ATCC CRL-5908) is a non-small cell lung cancer (NSCLC) cell line which expresses constitutively active mutated EGFR L858R and EGFR T790M (Kobayashi et al 2005). These mutations are acquired secondary mutations known to confer resistance to EGFR tyrosine kinase inhibitor (TKI) therapies in NSCLC patients. The NCI-H1975 cell line also expresses c-Met. […] The same method was used as in the U87MG assay described above, except that the NCI-H1975 cells were stimulated with HGF. One day before the treatment, the medium used was changed from containing 10% FBS to containing no serum. Treatments were added at various concentrations (0.003-300 nM) in the presence of 80 ng/ml HGF and incubated for 3 days at 37° C.

9D9m2a: anti-mouse CTLA4 antibody: 9D9 VH in mouse IgG2a backbone, heavy chain SEQ ID NO: 52, light chain SEQ ID NO: 50 [Fcab 9D9m2a, reference compound]
Mice showing hair loss (LL2.ova): 0/8
Skin lesions (LL2.ova): 0/8

rilotumumab [reference compound]
concentration of free HGF in the media (HGF): significant decrease in the concentration of free HGF in the media
block of phosphorylation of MAPK and Akt [1]: unable to block the phosphorylation of MAPK and Akt
block of phosphorylation of c-Met by HGF [2]: able to block the phosphorylation of c-Met by HGF

C#Cc1cccc(Nc2ncnc3cc(OCCOC)c(OCCOC)cc23)c1 [erlotinib, reference compound]
reduction of cell proliferation induced by HGF (NCI-H1975 cells): No effect
